Assay [1] addresses T1, hEGFR-IV_580-638 (human).
T1 construct: PCR amplified from the His-tagged hEGFR construct; purified on Ni sepharose
T1 chain: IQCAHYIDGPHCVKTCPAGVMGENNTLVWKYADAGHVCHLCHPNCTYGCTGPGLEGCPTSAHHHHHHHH
Briefly: SPR, antibody captured on Protein G. How it is done: (§1) Measurements were performed on a Biacore 2000 instrument (GE). […] Various human and cynomolgus EGFR constructs were injected as analyte at a concentration of 200 nM at a flow rate of 30 μl/min in HBS-EP buffer. Dissociation time was 4 min. After each binding event, the surface was regenerated with 10 μl of glycine buffer pH 1.5. To verify the integrity of the EGFR domain IV constructs, a polyclonal goat anti-EGFR known to us to contain at least one anti EGFR domain IV binder (AF231, Bio-Techne AG, Zug, Switzerland) was immobilized as described above and human and cynomolgus EGFR constructs were injected as described above.
In general terms: SPR reads the build-up and loss of mass on a sensor chip optically.

Assay [2] addresses T2, Cynomolgus EGFR-IV_580-638 (cynomolgus).
T2 chain: T1 chain with P58A, T59R
Briefly: SPR, antibody captured on Protein G. How it is done: as §1

Assay [3] concerns the target T3, hEGFR-IV_556-638 (human).
T3 construct: PCR amplified from the His-tagged hEGFR construct; purified on Ni sepharose
T3 chain: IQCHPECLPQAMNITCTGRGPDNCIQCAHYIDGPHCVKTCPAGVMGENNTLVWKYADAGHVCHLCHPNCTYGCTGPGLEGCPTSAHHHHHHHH
The experiment in a line: SPR, chimeric antibody captured on Protein G, analyte 200 nM. How it is done: as §1

Assay [4] concerns the target T4, Cynomolgus EGFR-IV_556-638 (cynomolgus).
T4 chain: T3 chain with A11V, P82A, T83R
The description is as above. As to the method: as §1

The target of assay [5] is T5, hEGFR-I-II-III_hErbB3-IV (human).
T5 construct: also called chimeric EGFR I-III Her3 IV molecule; EGFR-Her3 chimeric molecule (B)
The experiment in a line: ELISA, coated antigen 2 ug/ml. As to the method: Supernatants from both subclones were harvested and purified using a LC-kappa mouse affinity matrix (Life technologies), according to the manufacturer's instructions. These purified antibodies were tested by ELISA on 96-well plates coated with either soluble human EGFR or recombinant EGFR-Her3 chimeric constructs. These molecules were diluted at 2 ug/ml in PBS and immobilized overnight at 4° C. on a high binding 96-well plates. […] As a control, Panitumumab (Vectibix®) was used at the same concentrations. […] Following this incubation, the plates were washed and incubated with 100 ul of TMB substrate. The reaction was stopped by adding 100 μl of H₂SO₄ 2N and the absorbance was read at 450 nm on a Synergy HT2 spectrophotometer (Biotek, USA; distributor: WITTEC AG, Littau, Switzerland).

The target of assay [6] is T6, CD3 on human T cells (PBMCs) (human, UniProt P07766 23-207).
T6 construct: whole, on cells; also called CD3ε; CD4+ T cells
The experiment in a line: flow cytometry on PBMCs, T cells, anti-human IgG Fc-PE. As to the method: (§2) FACS simple binding was performed using PBMCs (to assess binding to CD3) or NCI-H1703 squamous cancer cells (to assess binding to EGFR). Cells were resuspended at 10⁶ cells/ml in FACS buffer (1×PBS+10% Versene+2% FBS), and 100 ul were added to U-bottom 96-well plates which were then centrifuged at 350 g for 3 min. […] The cells were washed in FACS buffer and stained with the following antibodies (ThermoFisher): anti-human CD4 PE-eF610 (1/100), anti-human CD8a APC (1/100) and anti-human IgG (Fc-gamma specific) PE (1/200) for 20 min 4° C. Cells were washed with FACS buffer and resuspended in FACS buffer containing Sytox green viability dye (1/200), for 20 min at 4° C. and acquired on a CytoFlex (Beckman Coulter).
(§3) For the PBMCs, the cells were also labelled with anti-CD4 or anti-CD8 antibodies.
For orientation: Flow cytometry measures light scatter and fluorescence of single cells or particles in a stream.

Assay [7] deals with T6, CD3 on human T cells (PBMCs). Briefly: flow cytometry on PBMCs, CD4+ T cells, anti-human IgG Fc-PE. As to the method:
as §2, §3

For assay [8] the target is unchanged. Briefly: flow cytometry on PBMCs, CD8+ T cells, anti-human IgG Fc-PE. How it is done:
as §2, §3

Assay [9] has as its target T7, human EGFR soluble extracellular region with C-terminal poly-histidine tag (hEGFR) (human, UniProt P00533 25-638).
T7 construct: also called human EGFR His-tagged protein; soluble human EGFR
Briefly: ELISA, single EGFR binding, coated huEGFR-His, anti-human IgG Fab-HRP. On the technique in general: ELISA stands for enzyme-linked immunosorbent assay.

For assay [10], the target named is T8, membrane-bound human EGFR receptor expressed on cells (human, UniProt P00533 25-1210).
T8 construct: whole, on cells; the construct transfected into BAF cells is not described; also called EGFR-transfected BAF cells
The experiment in a line: flow cytometry on NCI-H1703 squamous cancer cells, anti-human IgG Fc-PE. How it is done:
as §2, §3

Assay [11] deals with T7, human EGFR soluble extracellular region …. The experiment in a line: dual binding ELISA, coated human EGFR, detection with huCD3-biotin and streptavidin-HRP.

Where a chain is given by its changes, count along the chain named.

This is an account of results in patent US20230159661A1 (ICHNOS SCIENCES, published 2023).

By EC50 is commonly meant the concentration giving half of the maximal effect. Low values mean an effect from little substance, high ones a need for much substance.

T6 sequence (P07766 23-207): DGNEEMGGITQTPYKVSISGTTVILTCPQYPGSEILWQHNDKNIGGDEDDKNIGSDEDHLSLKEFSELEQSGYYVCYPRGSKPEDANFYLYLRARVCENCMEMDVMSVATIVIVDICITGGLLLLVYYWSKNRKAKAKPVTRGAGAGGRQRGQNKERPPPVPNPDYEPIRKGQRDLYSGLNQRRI

B1: 3A6 chimeric antibody (antibody, human IgG1, kappa, V domains shown)
VH: QVQLKQSGPGLVQPSQSLSITCTVSGFSLTSYGVHWVRQSPGKGLEWLGVIWSGGTTDYNAAFISRLSISQDNSKSQVFFKMNSLQANDTAIYYCAGNQGRTVRPTWFAYWGQGTLVTVSS
VL: DILLTQSPAILSVSPGERVSFSCRASQSIGTSIHWYQQRANGSPRLLIKYASESISGIPSRFSGSGSGTDFTLSINSVESEDIAHYYCQQNSNWPLTFGAGTKLELKR
notes: Mouse-human chimeric IgG1 kappa; also called chimeric 3A6 antibody
Take B1: the binding result in assay [1] is “no binding (tested: 200 nM)”; in [2] it was “no binding (tested: 200 nM)”; in [3] it was “binds”; in assay [4], “binds”.

B2: 3A6 mouse hybridoma antibody (subclone 3A6A12B5) (antibody, V domains shown)
VH: B1 VH
VL: DILLTQSPAILSVSPGERVSFSCRASQSIGTSIHWYQQRANGSPRLLIKYASESISGIPSRFSGSGSGTDFTLSINSVESEDIAHYYCQQNSNWPLTFGAGTKLELK
notes: Tested as mouse IgG (kappa) from hybridoma: supernatant of the parental clone 3A6, purified antibody of the subclone 3A6A12B5; also called 3A6A12F5; 3A6 hybridoma candidate
Consider B2, for which, in assay [5], the binding result is on record as “no binding (tested: 10 to 0.01 µg/ml)”.

B3: CD3×EGFR_SF3 (bispecific antibody, human IgG1, kappa, L234A L235A)
chain 1: EVQLVESGGGLVQPGGSLRLSCAASGFTFNTYAMNWVRQAPGKGLEWVARIRSKYNNYATYYADSVKSRFTISRDDSKNTLYLQMNSLRAEDTAVYYCVRHGNFGNSYVSYFAYWGQGTTVTVSSGGGGSGGGGSGGGGSEIVVTQSPATLSVSPGERATLSCRSSTGAVTESNYANWVQEKPGQAFRGLIGGANKRAPGVPARFSGSLSGDEATLTISSLQSEDFAVYYCALFYSNTWVFGQGTKLEIKGGGGTQVQLQESGPGLVKPSETLSLTCTVSGGSVSSGDYYWTWIRQSPGKGLEWIGHIYYSGNTNYNPSLKSRLTISIDTSKTQFSLKLSSVTAADTAIYYCVRDRVTGAFDIWGQGTMVTVSSASTKGPSVFPLAPSSKSTSGGTAALGCLVKDYFPEPVTVSWNSGALTSGVHTFPAVLQSSGLYSLSSVVTVPSSSLGTQTYICNVNHKPSNTKVDKKVEPKSCDKTHTCPPCPAPEAAGGPSVFLFPPKPKDTLMISRTPEVTCVVVDVSHEDPEVQFKWYVDGVEVHNAKTKPREEQYNSTFRVVSVLTVLHQDWLNGKEYKCKVSNKALPAPIEKTISKTKGQPREPAVYTLPPSREEMTKNQVKLVCLVTGFYPSDIAVEWESSGQPENNYYTTPPMLDSDGSFSLVSWLNVDKSRWQQGNIFSCSVMHEALHNRFTQKSLSLSPG
chain 2: not shown
chain 3: DKTHTCPPCPAPEAAGGPSVFLFPPKPKDTLMISRTPEVTCVVVDVSHEDPEVKFNWYVDGVEVHNAKTKPREEQYNSTYRVVSVLTVLHQDWLNGKEYKCKVSNKALPAPIEKTISKAKGQPREPEVATFPPSRDELTKNQVTLVCLVTGFYPSDIAVEWESNGQPENNYKTDPPLLESDGSFALSSRLRVDKSRWQQGNVFSCSVMHEALHNHYTQKSLSLSPG
notes: Batches AE042, P1069, P1027, TRS
On to B3, for which the EC50 in assay [6] was 5.93 µg/mL; in assay [7], 6.05 µg/mL; in assay [8], 3.91 µg/mL; in assay [9] it was 0.053 µg/mL; in [10], 0.182 µg/mL; in assay [11] it was 0.171 µg/mL.

B4: 10E6 chimeric antibody (antibody, human IgG1, kappa, V domains shown)
VH: DVQLQESGPGRVKPSQSLSLTCTVTGYSLTSDYAWSWIRQFPGNRLEWMVYITYSGITTYNPSLKSRISITRDTSKNQFFLQLNSVTTEDTATYYCAGGDYGLSSWFAYWGQGTLVTVSS
VL: DIVLTQSPVTLSVTPGDRVSLSCRASQSISNYLHWYQQKSHESPRLLIKYASQSISGIPSRFSGSGSGTDFTLSINSVETEDFGMYFCQQSNNWPYTFGGGTKLEIKR
notes: Mouse-human chimeric IgG1 kappa; also called chimeric 10E6 antibody
Turning to B4, the binding result in [1] is “no binding (tested: 200 nM)”; in assay [2], “no binding (tested: 200 nM)”; in assay [3], “binds”; in [4], “binds”.

B5: 10E6 mouse hybridoma antibody (subclone 10E6F5) (antibody, V domains shown)
VH: B4 VH
VL: DIVLTQSPVTLSVTPGDRVSLSCRASQSISNYLHWYQQKSHESPRLLIKYASQSISGIPSRFSGSGSGTDFTLSINSVETEDFGMYFCQQSNNWPYTFGGGTKLEIK
notes: Tested as mouse IgG (kappa) from hybridoma: supernatant of the parental clone 10E6, purified antibody of the subclone 10E6F5; also called 10E6 hybridoma candidate
Take B5: the binding result in assay [5] is “no binding (tested: 10 to 0.01 µg/ml)”.
